Experimental data as given in PMC7374565 (Nature Communications, 2020).

What was measured:
[1] = target: intrinsically disordered domain of human ANP32A (amino acids 144-249) (human, UniProt P39687 144-249); assay: NMR titration; details: both partners purified
[2] = target: intrinsically disordered domain of avian ANP32A (amino acids 149-281) (Gallus gallus); assay: NMR titration; details: both partners purified

Sequence of intrinsically disordered domain of human ANP32A (amino acids 144-249) (P39687 144-249): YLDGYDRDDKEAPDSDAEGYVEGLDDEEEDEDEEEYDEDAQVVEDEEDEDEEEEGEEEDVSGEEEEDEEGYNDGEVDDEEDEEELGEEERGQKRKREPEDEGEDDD

B1: 627 domain of PB2 (E627), amino acids 538-693 (domain or fragment)
chain: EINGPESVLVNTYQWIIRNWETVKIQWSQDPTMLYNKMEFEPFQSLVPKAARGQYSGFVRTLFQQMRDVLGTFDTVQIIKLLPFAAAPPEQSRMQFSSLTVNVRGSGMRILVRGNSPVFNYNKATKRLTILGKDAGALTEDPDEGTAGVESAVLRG
With B1 the “KD of the individual sites” value [1] was greater than 1400 µM, the “KD of the individual sites (tightest)” value [2] was no less than 1700 µM and the Kd [2] was greater than 600 µM.
